Test results reported in PMC4342241, “Antimicrobial Characterization of Site-Directed Mutagenesis of Porcine Beta Defensin 2” (PLoS ONE, 2015).
Where no end group is shown, it is not given here.

What was measured:
[1] = cited from earlier work
From the text: In this report, eight amino acids of pBD2 were selected for substitution by arginine or lysine based on rational analysis. It was hypothesized that the major factor defining the antimicrobial activities of defensins was their cationicity or isoelectric point (pI) values. Indeed, the antimicrobial activities of defensins increased with their net charges. Harder et al reported that human beta defensin 3 (hBD3) had the strongest activity among hBD1, 2 and 3, because it had the most net positive charges (hBD1, 2 and 3 has +5, +6, and +11 net pos ...

[2] = tested on: porcine erythrocytes; assay: Hemolytic activity assay (release of hemoglobin); format: cell-based; details: 0~80 μg/ml, 37°C for 1 h
Experimental: The release of hemoglobin from porcine erythrocytes was used as a measure for the hemolytic activity of defensin as described before. 1mL fresh porcine blood was centrifuged at 1800 g for 10 min for collecting erythrocytes in the presence of heparin to prevent coagulation. The pellet was washed three times and re-suspended in saline solution at the proportion of 1:9. Subsequently, 100 μL erythrocyte solution was mixed with 100 μL of individual mutated defensins (final concentrations were 0~80 μg/ml) in polypropylene 96-well microtiter plates. After incubation at 37°C for 1 h, the plate was centrifuged at 1800 g for 5 min. 100 μL supernatant was transferred to a new 96-well plate separately and the absorbance was measured at 450 nm (reference 630 nm) using a microplate reader. The hemolysis ratio was calculated by comparison with the control samples containing no peptide or 1% Trition-100 [24–25].
Different concentrations of mutant pBD2 protein (100 μL) were separately incubated with erythrocytes (100 μL) at 37°C for 1 h. Less than 10% hemolysis ratio was found at all different concentrations of mpBD2-1~8 (data not shown). No significant differences were observed among different concentrations or among different mutants (P > 0.05).

Substance: human beta defensin 3 (GIINTLQKYYCRVRGGRCAVLSCLPKEEQIGKCSTRGRKCCRRKK; ends and bridges not checked; cysteine pairing not given here; UniProt P81534 23-67, looked up) [hBD3]
- net positive charges [1]: +11

Substance: Porcine β defensin 2 [pBD2]
- hemolytic activity (in words) [2]: low hemolytic activities

Substance: hBD2: human beta defensin 2 (GIGDPVTCLKSGAICHPVFCPRRYKQIGTCGLPGTKCCKKP; ends and bridges not checked; cysteine pairing not given here; UniProt O15263 24-64, looked up)
- net positive charges [1]: +6

Substance: human β defensin 1 (DHYNCVSSGGQCLYSACPIFTKIQGTCYRGKAKCCK; ends and bridges not checked; cysteine pairing not given here; UniProt P60022 33-68, looked up) [hBD1]
- net positive charges [1]: +5
